Assay results as given in patent publication US20250270304A1 (PHENOMIC AI, published 2025).

T1: Latent Activin A (human, UniProt P08476 21-426, limits assumed)
T1 construct: also called INHBA latent
T1 sequence: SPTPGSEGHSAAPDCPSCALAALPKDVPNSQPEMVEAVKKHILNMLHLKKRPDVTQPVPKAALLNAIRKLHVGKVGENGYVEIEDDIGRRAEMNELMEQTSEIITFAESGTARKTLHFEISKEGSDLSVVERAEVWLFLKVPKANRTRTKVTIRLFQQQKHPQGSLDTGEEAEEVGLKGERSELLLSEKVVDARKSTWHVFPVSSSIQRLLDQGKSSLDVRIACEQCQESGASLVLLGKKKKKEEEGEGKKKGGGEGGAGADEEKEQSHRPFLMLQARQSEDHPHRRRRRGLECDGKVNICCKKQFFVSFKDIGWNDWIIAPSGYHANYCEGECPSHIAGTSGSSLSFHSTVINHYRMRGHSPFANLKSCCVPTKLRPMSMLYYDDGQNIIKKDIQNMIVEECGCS

T2: Mature Activin A (human, UniProt P08476 311-426)
T2 construct: also called active Activin A; INHBA mature
T2 sequence: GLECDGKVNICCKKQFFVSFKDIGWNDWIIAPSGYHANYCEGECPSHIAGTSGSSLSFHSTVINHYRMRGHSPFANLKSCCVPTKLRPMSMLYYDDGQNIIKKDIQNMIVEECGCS

T3: Inhibin A (Homo sapiens (Human), UniProt P05111 233-366; P08476 311-426)
T3 sequence 1: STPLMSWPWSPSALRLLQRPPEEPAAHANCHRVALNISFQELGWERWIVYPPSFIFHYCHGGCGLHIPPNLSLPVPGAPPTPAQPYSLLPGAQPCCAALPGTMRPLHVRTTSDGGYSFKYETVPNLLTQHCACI
T3 sequence 2: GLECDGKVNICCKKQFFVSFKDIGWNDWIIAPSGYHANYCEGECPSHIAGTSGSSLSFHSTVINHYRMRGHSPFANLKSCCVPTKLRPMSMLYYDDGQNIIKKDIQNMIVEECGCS

T4: Activin B (Homo sapiens (Human), UniProt P09529 293-407)
T4 construct: also called Mature Activin B; mature Activin B
T4 sequence: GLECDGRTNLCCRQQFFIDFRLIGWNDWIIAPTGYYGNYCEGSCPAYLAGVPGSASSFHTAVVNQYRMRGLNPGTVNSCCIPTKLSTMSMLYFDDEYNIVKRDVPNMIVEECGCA

T5: Inhibin B (Homo sapiens (Human), UniProt P05111 233-366; P09529 293-407)
T5 sequence 1: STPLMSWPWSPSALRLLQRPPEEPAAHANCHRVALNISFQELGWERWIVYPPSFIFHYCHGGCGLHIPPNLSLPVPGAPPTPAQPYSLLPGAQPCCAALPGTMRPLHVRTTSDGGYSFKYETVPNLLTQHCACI
T5 sequence 2: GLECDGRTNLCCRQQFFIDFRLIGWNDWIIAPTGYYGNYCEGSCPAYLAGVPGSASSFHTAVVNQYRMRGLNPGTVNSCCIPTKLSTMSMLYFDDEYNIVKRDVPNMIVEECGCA

B1: Control 2 (antibody, human IgG4 S228P, kappa, V domains shown)
VH: QVQLQESGPGLVKPSETLSLTCTVSGGSFSSHFWSWIRQPPGKGLEWIGYILYTGGTSFNPSLKSRVSMSVGTSKNQFSLKLSSVTAADTAVYYCARARSGITFTGIIVPGSFDIWGQGTMVTVSS
VL: not shown
notes: also called garetosmab; Garetosmab
B2: AB852 (antibody, IgG1, V domains shown)
VH: QVTLRESGPALVKPTQTLTLTCTVSGFSLSDTRWGVNWIRQPPGKALEWIGYINDRGTTDYNSALKSRLTISKDTSKNQVVLTMTNMDPVDTATYYCAHTLHTREFVGMDVWGQGTTVTVSS
VL: DIVMTQSPDSLAVSLGERATINCKSSQSVLDTSTNRNYLAWYQQKPGQPPKLLIYGASIRAGGVPDRFSGSGSGTDFTLTISSLQAEDVAVYYCQQYETWPWTFGGGTKVEIK
B3: AB843 (antibody, IgG1, V domains shown)
VH: EVQLVQSGAEVKKPGASVKVSCKASGDTSSHSHIHWVRQAPGQGLEWMGWINPRSGATNYAQKLQGRGTMTTDPSTSTAYMELRSLRSDDTAVYYCARDRGGRTNGVGAFDIWGQGTMVTVSS
VL: ESALTQPASVSGSPGQSITISCTGTSGDIGRYNYVSWYQQHPGKAPKLMIYEDIERPSGVSNRFSGSKSGNTASLTISGLQAEDEADYYCQVWDATLDLVFGGGTKLTVL
B4: Control 3 (antibody, human IgG1, kappa, V domains shown)
VH: QVTLRESGPALVKPTQTLTLTCTFSGFSLSTSGMSVGWIRQPPGKALEWLADIWWDDKKDYNPSLKSRLTISKDTSKNQVVLKVTNMDPADTATYYCARSMITNWYFDVWGAGTTVTVSS
VL: DIQMTQSPSTLSASVGDRVTITCKCQLSVGYMHWYQQKPGKAPKLLIYDTSKLASGVPSRFSGSGSGTEFTLTISSLQPDDFATYYCFQGSGYPFTFGGGTKLEIKR
notes: Negative control antibody; also called palivizumab
B5: AB342 (antibody, IgG1, V domains shown)
VH: EVQLVESGGGLVQPGGSLRLSCAASGFDFGEHWMSWVRQAPGKGLELVASIKGDASDTYYPDSVKGRFTISRDNAKNSLYLQMNSLRAEDTAVYYCVKDLSKQWLGIDYWGQGTLVTVSS
VL: DIVMTQSPLSLPVTPGEPASISCRSSQSLLHSNEKNYLHWYLQKPGQSPQLLIYDASKRASGVPDRFSGSGSGTDFTLKISRVEAEDVGVYYCVQDLHTPFTFGGGTKVEIK
B6: Control 1 (antibody, V domains shown)
VH: QVQLVQSGAEVKKPGASVKVSCKASGYTFTSYGLSWVRQAPGQGLEWMGWIIPYNGNTNSAQKLQGRVTMTTDTSTSTAYMELRSLRSDDTAVYFCARDRDYGVNYDAFDIWGQGTMVTVSS
VL: not shown
notes: also called AMGA1; Amga1

Experiments:
[1] = target: T1, Latent Activin A; assay: ELISA, coated antigen, OD450
[2] = target: T2, Mature Activin A; assay: ELISA, coated antigen, OD450
[3] = target: T3, Inhibin A; assay: ELISA, coated antigen, OD450
[4] = target: T1, Latent Activin A; assay: ELISA dose-response, coated antigen
Method: (§1) Antibodies were re-expressed in 40 mL cultures of Expi293 cells and purified using protein G magnetic sepharose beads (Cytiva, Marlborough, MA) to provide larger quantities for secondary screening. Secondary screening included dose responses in both functional assays described above (SMAD nuclear localization and fibroblast activations assays) as well as in binding assays to the same antigens listed in Table 3. Plates were coated with 25 μL of 3 μg/mL antigen in 384-well Maxisorp plates overnight at 4° C. with agitation. The next day, the samples in the plates were blocked with 70 μL blocking buffer (PBS+1% BSA+0.1% Tween-20) for 2 hours at room temperature. Plates were then washed three times with 100 μL of wash buffer (PBS+0.1% Tween-20). Primary antibodies in Expi293 expression medium were diluted 1:3 in blocking buffer, 25 μL added per well, and the plates were incubated for an hour at room temperature with agitation. Plates were then washed three times and 25 μL of secondary antibody (goat anti-Human IgG, HRP conjugated; Jackson Immunoresearch) diluted 1:5000 in blocking buffer was added for 30 minutes at room temperature. The wells in the plates were washed six times with wash buffer and TMB substrate was added followed by 1 M H3PO4.

[5] = target: T2, Mature Activin A; assay: ELISA dose-response, coated antigen
Method: as §1

[6] = target: T3, Inhibin A; assay: ELISA dose-response, coated antigen (row 'Inhibin')
Method: as §1

[7] = target: T4, Activin B; assay: ELISA dose-response, coated antigen; dose-response ELISA, 1:3 dilutions from 133 nM; weak binding within the tested range
Method: as §1

[8] = target: T4, Activin B; assay: ELISA, coated antigen, OD450; secondary screen, single OD 450 reading as fold over negative control; below the 1.40-fold cut-off
Method: as §1

[9] = target: T4, Activin B; assay: ELISA, coated antigen, OD450
[10] = target: T4, Activin B; assay: ELISA dose-response, coated antigen
Method: as §1

[11] = target: T1, Latent Activin A; assay: ELISA, coated antigen, OD450; negative control antibody
Method: as §1

[12] = target: T2, Mature Activin A; assay: as above
Method: as §1

[13] = target: T4, Activin B; assay: as above
Method: as §1

[14] = target: T3, Inhibin A; assay: as above
Method: as §1

[15] = target: T4, Activin B; assay: ELISA, coated antigen, OD450; secondary screen, single OD 450 reading as fold over negative control; below the 1.40-fold cut-off, so not a binder
Method: as §1

[16] = target: T5, Inhibin B; assay: the assays described above

Binder	fold-change of OD 450 over negative control (BSA) [1] [fold]	fold-change of OD 450 over negative control (BSA) [2] [fold]	fold-change of OD 450 over negative control (BSA) [3] [fold]	EC50 [4] [pM]	EC50 [5] [pM]	EC50 [6] [pM]	EC50 [7] [pM]	fold-change of OD 450 over negative control (BSA) [8] [fold]	fold-change of OD 450 over negative control (BSA) [9] [fold]	EC50 [10] [pM]	binding result [11]	binding result [12]	binding result [13]	binding result [14]	fold-change of OD 450 over negative control (BSA) [15] [fold]	binding result [16]
B1	21.6	21	15.9	40	70	2080	11200	0.71	–	–	–	–	–	–	–	–
B2	6.01	8.73	0.94	40900	2730	–	21300	0.88	–	–	–	–	–	–	–	–
B3	24.9	24.7	22.9	40	20	50	–	–	24.6	30	–	–	–	–	–	–
B4	–	–	–	–	–	–	–	–	–	–	no binding	no binding	no binding	no binding	–	–
B5	7	7.81	0.36	48600	4890	–	–	–	–	–	–	–	–	–	0.43	–
B6	18.7	16.3	11.7	30	30	20	–	0.57	–	–	–	–	–	–	–	no binding
